Patent US20180155451A1 (published 2018)

T1: FcγRIIb extracellular domain with C-terminal His tag (human, UniProt P31994 43-217)
T1 construct: extracellular domain; expressed in FreeStyle293 cells; analyte in the Biacore assay; also called FcgRIIb; 2b; not shown: His tag at the C terminus
T1 sequence (looked up): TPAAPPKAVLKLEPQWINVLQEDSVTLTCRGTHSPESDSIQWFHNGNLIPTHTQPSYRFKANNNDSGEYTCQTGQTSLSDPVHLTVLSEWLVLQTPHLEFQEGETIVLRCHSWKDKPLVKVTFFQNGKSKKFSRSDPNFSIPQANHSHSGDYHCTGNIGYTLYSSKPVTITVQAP


Target: T1, FcγRIIb extracellular domain with …
Assay: SPR (Biacore), captured antibody, FcγRIIb analyte; binding relative to GpH7-B3/GpL16-k0 = 100

Ho/Con_2b	Binder
132 % of control	GpH7-B3 variant K326_20W/GpL16-k0 (antibody, human IgG1, kappa, homodimerized; mutation in both H chains; also called Ho Ab K326_20W) heavy: not shown light: DIVMTQSPLSLPVTPGEPASISCQASESLVHSNRNTYLHWYLQKPGQSPQLLIYKVSNRFSGVPDRFSGSGSGTDFTLKISRVEAEDVGVYYCSQNTHVPPTFGQGTKVEIERTVAAPSVFIFPPSDEQLKSGTASVVCLLNNFYPREAKVQWKVDNALQSGNSQESVTEQDSKDSTYSLSSTLTLSKADYEKHKVYACEVTHQGLSSPVTKSFNRGEC
145 % of control	GpH7-B3 variant K334_03V/GpL16-k0 (antibody, human IgG1, kappa, homodimerized; mutation in both H chains; also called Ho Ab K334_03V) heavy: not shown light: DIVMTQSPLSLPVTPGEPASISCQASESLVHSNRNTYLHWYLQKPGQSPQLLIYKVSNRFSGVPDRFSGSGSGTDFTLKISRVEAEDVGVYYCSQNTHVPPTFGQGTKVEIERTVAAPSVFIFPPSDEQLKSGTASVVCLLNNFYPREAKVQWKVDNALQSGNSQESVTEQDSKDSTYSLSSTLTLSKADYEKHKVYACEVTHQGLSSPVTKSFNRGEC
115 % of control	GpH7-B3 variant K334_04F/GpL16-k0 (antibody, human IgG1, kappa, homodimerized; mutation in both H chains; also called Ho Ab K334_04F) heavy: not shown light: DIVMTQSPLSLPVTPGEPASISCQASESLVHSNRNTYLHWYLQKPGQSPQLLIYKVSNRFSGVPDRFSGSGSGTDFTLKISRVEAEDVGVYYCSQNTHVPPTFGQGTKVEIERTVAAPSVFIFPPSDEQLKSGTASVVCLLNNFYPREAKVQWKVDNALQSGNSQESVTEQDSKDSTYSLSSTLTLSKADYEKHKVYACEVTHQGLSSPVTKSFNRGEC
112 % of control	GpH7-B3 variant K334_05P/GpL16-k0 (antibody, human IgG1, kappa, homodimerized; mutation in both H chains; also called Ho Ab K334_05P) heavy: not shown light: DIVMTQSPLSLPVTPGEPASISCQASESLVHSNRNTYLHWYLQKPGQSPQLLIYKVSNRFSGVPDRFSGSGSGTDFTLKISRVEAEDVGVYYCSQNTHVPPTFGQGTKVEIERTVAAPSVFIFPPSDEQLKSGTASVVCLLNNFYPREAKVQWKVDNALQSGNSQESVTEQDSKDSTYSLSSTLTLSKADYEKHKVYACEVTHQGLSSPVTKSFNRGEC
137 % of control	GpH7-B3 variant K334_07I/GpL16-k0 (antibody, human IgG1, kappa, homodimerized; mutation in both H chains; also called Ho Ab K334_07I) heavy: not shown light: DIVMTQSPLSLPVTPGEPASISCQASESLVHSNRNTYLHWYLQKPGQSPQLLIYKVSNRFSGVPDRFSGSGSGTDFTLKISRVEAEDVGVYYCSQNTHVPPTFGQGTKVEIERTVAAPSVFIFPPSDEQLKSGTASVVCLLNNFYPREAKVQWKVDNALQSGNSQESVTEQDSKDSTYSLSSTLTLSKADYEKHKVYACEVTHQGLSSPVTKSFNRGEC
116 % of control	GpH7-B3 variant L235_20W/GpL16-k0 (antibody, human IgG1, kappa, homodimerized; mutation in both H chains; also called Ho Ab L235_20W) heavy: not shown light: DIVMTQSPLSLPVTPGEPASISCQASESLVHSNRNTYLHWYLQKPGQSPQLLIYKVSNRFSGVPDRFSGSGSGTDFTLKISRVEAEDVGVYYCSQNTHVPPTFGQGTKVEIERTVAAPSVFIFPPSDEQLKSGTASVVCLLNNFYPREAKVQWKVDNALQSGNSQESVTEQDSKDSTYSLSSTLTLSKADYEKHKVYACEVTHQGLSSPVTKSFNRGEC
147 % of control	GpH7-B3 variant L328_13S/GpL16-k0 (antibody, human IgG1, kappa, homodimerized; mutation in both H chains; also called Ho Ab L328_13S) heavy: not shown light: DIVMTQSPLSLPVTPGEPASISCQASESLVHSNRNTYLHWYLQKPGQSPQLLIYKVSNRFSGVPDRFSGSGSGTDFTLKISRVEAEDVGVYYCSQNTHVPPTFGQGTKVEIERTVAAPSVFIFPPSDEQLKSGTASVVCLLNNFYPREAKVQWKVDNALQSGNSQESVTEQDSKDSTYSLSSTLTLSKADYEKHKVYACEVTHQGLSSPVTKSFNRGEC
207 % of control	GpH7-B3 variant P238_09D/GpL16-k0 (antibody, human IgG1, kappa, homodimerized; mutation in both H chains; also called Ho Ab P238_09D) heavy: not shown light: DIVMTQSPLSLPVTPGEPASISCQASESLVHSNRNTYLHWYLQKPGQSPQLLIYKVSNRFSGVPDRFSGSGSGTDFTLKISRVEAEDVGVYYCSQNTHVPPTFGQGTKVEIERTVAAPSVFIFPPSDEQLKSGTASVVCLLNNFYPREAKVQWKVDNALQSGNSQESVTEQDSKDSTYSLSSTLTLSKADYEKHKVYACEVTHQGLSSPVTKSFNRGEC
114 % of control	GpH7-B3 variant P238_15Y/GpL16-k0 (antibody, human IgG1, kappa, homodimerized; mutation in both H chains; also called Ho Ab P238_15Y) heavy: not shown light: DIVMTQSPLSLPVTPGEPASISCQASESLVHSNRNTYLHWYLQKPGQSPQLLIYKVSNRFSGVPDRFSGSGSGTDFTLKISRVEAEDVGVYYCSQNTHVPPTFGQGTKVEIERTVAAPSVFIFPPSDEQLKSGTASVVCLLNNFYPREAKVQWKVDNALQSGNSQESVTEQDSKDSTYSLSSTLTLSKADYEKHKVYACEVTHQGLSSPVTKSFNRGEC
187 % of control	GpH7-B3 variant S267_06M/GpL16-k0 (antibody, human IgG1, kappa, homodimerized; mutation in both H chains; also called Ho Ab S267_06M) heavy: not shown light: DIVMTQSPLSLPVTPGEPASISCQASESLVHSNRNTYLHWYLQKPGQSPQLLIYKVSNRFSGVPDRFSGSGSGTDFTLKISRVEAEDVGVYYCSQNTHVPPTFGQGTKVEIERTVAAPSVFIFPPSDEQLKSGTASVVCLLNNFYPREAKVQWKVDNALQSGNSQESVTEQDSKDSTYSLSSTLTLSKADYEKHKVYACEVTHQGLSSPVTKSFNRGEC

The next lines start with the binder.

Binder	Ho/Con_2b
GpH7-B3 variant K334_02A/GpL16-k0 (antibody, human IgG1, kappa, homodimerized; mutation in both H chains; also called Ho Ab K334_02A) heavy: not shown light: DIVMTQSPLSLPVTPGEPASISCQASESLVHSNRNTYLHWYLQKPGQSPQLLIYKVSNRFSGVPDRFSGSGSGTDFTLKISRVEAEDVGVYYCSQNTHVPPTFGQGTKVEIERTVAAPSVFIFPPSDEQLKSGTASVVCLLNNFYPREAKVQWKVDNALQSGNSQESVTEQDSKDSTYSLSSTLTLSKADYEKHKVYACEVTHQGLSSPVTKSFNRGEC	110 % of control
GpH7-B3 variant K334_08L/GpL16-k0 (antibody, human IgG1, kappa, homodimerized; mutation in both H chains; also called Ho Ab K334_08L) heavy: not shown light: DIVMTQSPLSLPVTPGEPASISCQASESLVHSNRNTYLHWYLQKPGQSPQLLIYKVSNRFSGVPDRFSGSGSGTDFTLKISRVEAEDVGVYYCSQNTHVPPTFGQGTKVEIERTVAAPSVFIFPPSDEQLKSGTASVVCLLNNFYPREAKVQWKVDNALQSGNSQESVTEQDSKDSTYSLSSTLTLSKADYEKHKVYACEVTHQGLSSPVTKSFNRGEC	114 % of control
GpH7-B3 variant K334_10E/GpL16-k0 (antibody, human IgG1, kappa, homodimerized; mutation in both H chains; also called Ho Ab K334_10E) heavy: not shown light: DIVMTQSPLSLPVTPGEPASISCQASESLVHSNRNTYLHWYLQKPGQSPQLLIYKVSNRFSGVPDRFSGSGSGTDFTLKISRVEAEDVGVYYCSQNTHVPPTFGQGTKVEIERTVAAPSVFIFPPSDEQLKSGTASVVCLLNNFYPREAKVQWKVDNALQSGNSQESVTEQDSKDSTYSLSSTLTLSKADYEKHKVYACEVTHQGLSSPVTKSFNRGEC	129 % of control
GpH7-B3 variant K334_13S/GpL16-k0 (antibody, human IgG1, kappa, homodimerized; mutation in both H chains; also called Ho Ab K334_13S) heavy: not shown light: DIVMTQSPLSLPVTPGEPASISCQASESLVHSNRNTYLHWYLQKPGQSPQLLIYKVSNRFSGVPDRFSGSGSGTDFTLKISRVEAEDVGVYYCSQNTHVPPTFGQGTKVEIERTVAAPSVFIFPPSDEQLKSGTASVVCLLNNFYPREAKVQWKVDNALQSGNSQESVTEQDSKDSTYSLSSTLTLSKADYEKHKVYACEVTHQGLSSPVTKSFNRGEC	117 % of control
GpH7-B3 variant K334_14T/GpL16-k0 (antibody, human IgG1, kappa, homodimerized; mutation in both H chains; also called Ho Ab K334_14T) heavy: not shown light: DIVMTQSPLSLPVTPGEPASISCQASESLVHSNRNTYLHWYLQKPGQSPQLLIYKVSNRFSGVPDRFSGSGSGTDFTLKISRVEAEDVGVYYCSQNTHVPPTFGQGTKVEIERTVAAPSVFIFPPSDEQLKSGTASVVCLLNNFYPREAKVQWKVDNALQSGNSQESVTEQDSKDSTYSLSSTLTLSKADYEKHKVYACEVTHQGLSSPVTKSFNRGEC	138 % of control
GpH7-B3 variant L328_02A/GpL16-k0 (antibody, human IgG1, kappa, homodimerized; mutation in both H chains; also called Ho Ab L328_02A) heavy: not shown light: DIVMTQSPLSLPVTPGEPASISCQASESLVHSNRNTYLHWYLQKPGQSPQLLIYKVSNRFSGVPDRFSGSGSGTDFTLKISRVEAEDVGVYYCSQNTHVPPTFGQGTKVEIERTVAAPSVFIFPPSDEQLKSGTASVVCLLNNFYPREAKVQWKVDNALQSGNSQESVTEQDSKDSTYSLSSTLTLSKADYEKHKVYACEVTHQGLSSPVTKSFNRGEC	117 % of control
GpH7-B3 variant P238_04F/GpL16-k0 (antibody, human IgG1, kappa, homodimerized; mutation in both H chains; also called Ho Ab P238_04F) heavy: not shown light: DIVMTQSPLSLPVTPGEPASISCQASESLVHSNRNTYLHWYLQKPGQSPQLLIYKVSNRFSGVPDRFSGSGSGTDFTLKISRVEAEDVGVYYCSQNTHVPPTFGQGTKVEIERTVAAPSVFIFPPSDEQLKSGTASVVCLLNNFYPREAKVQWKVDNALQSGNSQESVTEQDSKDSTYSLSSTLTLSKADYEKHKVYACEVTHQGLSSPVTKSFNRGEC	209 % of control
GpH7-B3 variant P331_15Y/GpL16-k0 (antibody, human IgG1, kappa, homodimerized; mutation in both H chains; also called Ho Ab P331_15Y) heavy: not shown light: DIVMTQSPLSLPVTPGEPASISCQASESLVHSNRNTYLHWYLQKPGQSPQLLIYKVSNRFSGVPDRFSGSGSGTDFTLKISRVEAEDVGVYYCSQNTHVPPTFGQGTKVEIERTVAAPSVFIFPPSDEQLKSGTASVVCLLNNFYPREAKVQWKVDNALQSGNSQESVTEQDSKDSTYSLSSTLTLSKADYEKHKVYACEVTHQGLSSPVTKSFNRGEC	111 % of control
GpH7-B3 variant P331_16H/GpL16-k0 (antibody, human IgG1, kappa, homodimerized; mutation in both H chains; also called Ho Ab P331_16H) heavy: not shown light: DIVMTQSPLSLPVTPGEPASISCQASESLVHSNRNTYLHWYLQKPGQSPQLLIYKVSNRFSGVPDRFSGSGSGTDFTLKISRVEAEDVGVYYCSQNTHVPPTFGQGTKVEIERTVAAPSVFIFPPSDEQLKSGTASVVCLLNNFYPREAKVQWKVDNALQSGNSQESVTEQDSKDSTYSLSSTLTLSKADYEKHKVYACEVTHQGLSSPVTKSFNRGEC	100 % of control
GpH7-B3 variant P331_20W/GpL16-k0 (antibody, human IgG1, kappa, homodimerized; mutation in both H chains; also called Ho Ab P331_20W) heavy: not shown light: DIVMTQSPLSLPVTPGEPASISCQASESLVHSNRNTYLHWYLQKPGQSPQLLIYKVSNRFSGVPDRFSGSGSGTDFTLKISRVEAEDVGVYYCSQNTHVPPTFGQGTKVEIERTVAAPSVFIFPPSDEQLKSGTASVVCLLNNFYPREAKVQWKVDNALQSGNSQESVTEQDSKDSTYSLSSTLTLSKADYEKHKVYACEVTHQGLSSPVTKSFNRGEC	111 % of control
GpH7-B3 variant S239_03V/GpL16-k0 (antibody, human IgG1, kappa, homodimerized; mutation in both H chains; also called Ho Ab S239_03V) heavy: not shown light: DIVMTQSPLSLPVTPGEPASISCQASESLVHSNRNTYLHWYLQKPGQSPQLLIYKVSNRFSGVPDRFSGSGSGTDFTLKISRVEAEDVGVYYCSQNTHVPPTFGQGTKVEIERTVAAPSVFIFPPSDEQLKSGTASVVCLLNNFYPREAKVQWKVDNALQSGNSQESVTEQDSKDSTYSLSSTLTLSKADYEKHKVYACEVTHQGLSSPVTKSFNRGEC	108 % of control
GpH7-B3 variant S239_10E/GpL16-k0 (antibody, human IgG1, kappa, homodimerized; mutation in both H chains; also called Ho Ab S239_10E) heavy: not shown light: DIVMTQSPLSLPVTPGEPASISCQASESLVHSNRNTYLHWYLQKPGQSPQLLIYKVSNRFSGVPDRFSGSGSGTDFTLKISRVEAEDVGVYYCSQNTHVPPTFGQGTKVEIERTVAAPSVFIFPPSDEQLKSGTASVVCLLNNFYPREAKVQWKVDNALQSGNSQESVTEQDSKDSTYSLSSTLTLSKADYEKHKVYACEVTHQGLSSPVTKSFNRGEC	175 % of control
